Measurements taken from paper PMC9585082, “Structural insight into the ligand binding mechanism of aryl hydrocarbon receptor” (Nature Communications, 2022).

Key:
Details in all cases: both partners purified
[1] = biological target: T1, 6xHis-tagged dAHR PAS-B, Red-labeled (Drosophila melanogaster, UniProt O61543 264-381, labeled with the MO Red-Tris-NTA protein labeling kit); assay: MST; 50 nM Red-labeled 6xHis-dAHR PAS-B; mARNT PAS-B 100 µM to 3 nM; PBS, 0.05% Tween-20, 2.5% DMSO, 0.5 mM TCEP; without αNF
T1 construct: Aryl hydrocarbon receptor homolog spineless (dAHR), Drosophila melanogaster, UniProt O61543, PAS-B domain aa 264-381; the only His-tagged dAHR PAS-B construct it describes is the 6xHis-SUMO fusion (pET-28s), so SUMO may also have been present; also called Red-labeled dAHR PAS-B; source: purified; E. coli Rosetta (DE3) is the host named for pET-28s-dAHR PAS-B
T1 sequence (looked up): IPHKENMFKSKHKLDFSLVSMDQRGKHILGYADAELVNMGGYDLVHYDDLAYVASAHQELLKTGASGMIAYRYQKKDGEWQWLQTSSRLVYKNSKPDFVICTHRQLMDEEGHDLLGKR

[2] = biological target: T1, 6xHis-tagged dAHR PAS-B, Red-labeled; assay: MST; 50 nM Red-labeled 6xHis-dAHR PAS-B; mARNT PAS-B 100 µM to 3 nM; PBS, 0.05% Tween-20, 2.5% DMSO, 0.5 mM TCEP; with 1 µM αNF
[3] = biological target: T2, 6xHis-SUMO-tagged dAHR PAS-B (wild type) (Drosophila melanogaster, UniProt O61543 264-381); assay: ELISA; 100 nM 6xHis-SUMO-dAHR PAS-B (WT or mutants) coated on plates; GST-mARNT PAS-B 0.004-10 µM added, 1 h room temperature; anti-GST detection; four-parameter 'log(agonist) vs response' fit
T2 construct: Aryl hydrocarbon receptor homolog spineless (dAHR), Drosophila melanogaster, UniProt O61543, PAS-B domain aa 264-381; The printed name '6xHis-SUMO-dAHR PAS-B' puts the tag first; the end is not otherwise stated; also called 6xHis-SUMO-dAHR PAS-B; WT protein; source: E. coli Rosetta (DE3), purified; fusion tag retained
T2 sequence (looked up): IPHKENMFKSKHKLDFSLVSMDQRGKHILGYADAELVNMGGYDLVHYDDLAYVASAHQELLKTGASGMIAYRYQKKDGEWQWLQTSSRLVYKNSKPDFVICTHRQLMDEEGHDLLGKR

[4] = biological target: T3, 6xHis-SUMO-tagged dAHR PAS-B Y305A (Drosophila melanogaster, UniProt O61543 264-381, Y305A); assay: as above
T3 construct: Aryl hydrocarbon receptor homolog spineless (dAHR), Drosophila melanogaster, UniProt O61543, PAS-B domain aa 264-381; source: E. coli Rosetta (DE3), purified as the WT protein; fusion tag retained
T3 sequence (looked up): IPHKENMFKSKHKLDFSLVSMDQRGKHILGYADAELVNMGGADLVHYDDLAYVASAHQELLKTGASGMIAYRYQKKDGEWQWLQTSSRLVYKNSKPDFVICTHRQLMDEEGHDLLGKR

[5] = biological target: T4, 6xHis-SUMO-tagged dAHR PAS-B Y310A (Drosophila melanogaster, UniProt O61543 264-381, Y310A); assay: as above
T4 construct: Aryl hydrocarbon receptor homolog spineless (dAHR), Drosophila melanogaster, UniProt O61543, PAS-B domain aa 264-381; source: E. coli Rosetta (DE3), purified as the WT protein; fusion tag retained
T4 sequence (looked up): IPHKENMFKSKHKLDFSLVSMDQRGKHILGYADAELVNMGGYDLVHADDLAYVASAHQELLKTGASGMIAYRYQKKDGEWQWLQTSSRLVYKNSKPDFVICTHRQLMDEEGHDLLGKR

B1: mouse ARNT PAS-B domain (aa 360-465), fusion tag removed (domain or fragment)
chain: not shown
notes: Aryl hydrocarbon receptor nuclear translocator (ARNT), mouse, PAS-B domain aa 360-465; Subcloned into pET-28s 'similarly' to the AHR PAS-B domains; tag removed with ULP1; also called mARNT PAS-B
Kd [1]: 300 nM
Kd [2]: ~250 nM

B2: GST-tagged mARNT PAS-B (domain or fragment)
chain: not shown
notes: Aryl hydrocarbon receptor nuclear translocator (ARNT), mouse, PAS-B domain aa 360-465; GST retained for ELISA; also called GST-fused recombinant mARNT PAS-B; source: pGEX-6P-1 construct, purified
Kd [3]: ~380 nM
Kd [4]: 1800 nM
Kd [5]: 500 nM
